Laboratory results: the RNAGym collection of RNA variant scans (doi:10.7554/elife.80360)

B1: HDV Ribozyme (parent)
chain: GGCCGGCAUGGUCCCAGCCUCCUCGCUGGCGCCGGCUGGGCAACAUUCCGAGGGGACCGUCCCCUCGGUAAUGGCGAAUGGGACCCA

Variants of: B1
Assay: self-cleavage, relative activity (ratio to wild type); higher = more cleavage; co-transcriptional

Question: With GGCCGGCAUGGUCCCAGCCUCCUCGCUGGCGCCGGCUGGGCAAUAUGCCGAGGGGACCGUCCCCUCGGUAAUGGCGAAUGGGACCCA [C44U U47G] as the variant, how does the self-cleavage read?
Answer: The self-cleavage was 0.677.

Question: Which self-cleavage does the source give for GGCCGGCAUGGUCCCAGCCUCCUCGCUGGCGCCGGCUGGGCAAUAUCCCGAGGGGACCGUCCCCUCGGUAAUGGCGAAUGGGACCCA [C44U U47C] here?
Answer: Its self-cleavage is 0.54.

Question: Which self-cleavage does the source give for GGCCGGCAUGGUCCCAGCCUCCUCGCUGGCGCCGGCUGGGCAAGAUUCCGAGAGGACCGUCCCCUCGGUAAUGGCGAAUGGGACCCA [C44G G53A] here?
Answer: Its self-cleavage is 0.665.

Question: For GGCCGGCAUGGUCCCAGCCUCCUCGCUGGCGCCGGCUGGGCAAGAUUCCGAGGGGACCGUCCCCUCGGUAGUGGCGAAUGGGACCCA [C44G A71G], which self-cleavage is on record?
Answer: Its self-cleavage is 0.646.

Question: Which self-cleavage does the source give for GGCCGGCAUGGUCCCAGCCUCCUCGCUGGCGCCGGCUGGGCAACCUUCCGAGGGGACCGUCCCCUCGGUACUGGCGAAUGGGACCCA [A45C A71C] here?
Answer: The self-cleavage was 0.831.

Question: Which self-cleavage does the source give for GGCCGGCAUGGUCCCAGCCUCCUCGCUGGCGCCGGCUGGGCAAUAUUCCGAGGGGACCGUCCCCUCGGUAAUGGCGAAUGGGACCCG [C44U A87G] here?
Answer: The self-cleavage was 0.554.

Question: With GGCCGGCAUGGUCCCAGCCUCCUCGCUGGCGCCGGCUGGGCAAUAAUCCGAGGGGACCGUCCCCUCGGUAAUGGCGAAUGGGACCCA [C44U U46A] as the variant, how does the self-cleavage read?
Answer: The self-cleavage was 0.767.

Question: Which self-cleavage does the source give for GGCCGGCAUGGUCCCAGCCUCCUCGCUGGCGCCGGCUGGGCAAUAUUUCGAGGGGACCGUCCCCUCGGUAAUGGCGAAUGGGACCCA [C44U C48U] here?
Answer: Its self-cleavage is 0.898.

Question: With GGCCGGCAUGGUCCCAGCCUCCUCGCUGGCGCCGGCUGGGCAAUAUUCCGAGGGGACCGUCCCCUCGGUAAUGGCGAGUGGGACCCA [C44U A78G] as the variant, how does the self-cleavage read?
Answer: The self-cleavage was 0.242.

Question: For GGCCGGCAUGGUCCCAGCCUCCUCGCUGGCGCCGGCUGGGCAAGAUUCCGAGGGGACCGUCCCCUCGGUAAUGGCGAAUGGGGCCCA [C44G A83G], which self-cleavage is on record?
Answer: The self-cleavage was 0.233.

Question: For GGCCGGCAUGGUCCCAGCCUCCUCGCUGGCGCCGGCUGGGCAAUAUUCCGAGGGGACCGUCCCCUCUGUAAUGGCGAAUGGGACCCA [C44U G67U], which self-cleavage is on record?
Answer: Its self-cleavage is 0.499.

Question: For GGCCGGCAUGGUCCCAGCCUCCUCGCUGGCGCCGGCUGGGCAAUAUUCCGAGGGGACCGUCCCCUCGGUAAUGGCGAAUGGGACCGA [C44U C86G], which self-cleavage is on record?
Answer: Its self-cleavage is 0.928.

Question: For GGCCGGCAUGGUCCCAGCCUCCUCGCUGGCGCCGGCUGGGCAACCUUCCGGGGGGACCGUCCCCUCGGUAAUGGCGAAUGGGACCCA [A45C A51G], which self-cleavage is on record?
Answer: Its self-cleavage is 0.587.

Question: Which self-cleavage does the source give for GGCCGGCAUGGUCCCAGCCUCCUCGCUGGCGCCGGCUGGGCAAUAUUCCGAGGGGACCGUCCCGUCGGUAAUGGCGAAUGGGACCCA [C44U C64G] here?
Answer: The self-cleavage was 0.862.

Question: With GGCCGGCAUGGUCCCAGCCUCCUCGCUGGCGCCGGCUGGGCAAGAUUCCGAGGGGACCGUCCCCUCGGUAAUUGCGAAUGGGACCCA [C44G G73U] as the variant, how does the self-cleavage read?
Answer: The self-cleavage was 0.397.

Question: With GGCCGGCAUGGUCCCAGCCUCCUCGCUGGCGCCGGCUGGGCAAUAUUCCGAGGGGACCGUCCCCUCGGUGAUGGCGAAUGGGACCCA [C44U A70G] as the variant, how does the self-cleavage read?
Answer: Its self-cleavage is 0.793.

Question: For GGCCGGCAUGGUCCCAGCCUCCUCGCUGGCGCCGGCUGGGCAAUAUUCCGAGGGGACCGUCCCCUCGGUUAUGGCGAAUGGGACCCA [C44U A70U], which self-cleavage is on record?
Answer: Its self-cleavage is 0.955.

Question: Which self-cleavage does the source give for GGCCGGCAUGGUCCCAGCCUCCUCGCUGGCGCCGGCUGGGCAAGAUUCCGAGGGGACCGUCCCCUCGGUAAUGGAGAAUGGGACCCA [C44G C75A] here?
Answer: The self-cleavage was 0.406.

Question: For GGCCGGCAUGGUCCCAGCCUCCUCGCUGGCGCCGGCUGGGCAAUAUUCCGAGAGGACCGUCCCCUCGGUAAUGGCGAAUGGGACCCA [C44U G53A], which self-cleavage is on record?
Answer: Its self-cleavage is 0.709.

Question: Which self-cleavage does the source give for GGCCGGCAUGGUCCCAGCCUCCUCGCUGGCGCCGGCUGGGCAAGAUUCCGAGGGGACCGUCCCCUCGGUAAUGGCGAAUGGGACCUA [C44G C86U] here?
Answer: Its self-cleavage is 0.897.

Question: With GGCCGGCAUGGUCCCAGCCUCCUCGCUGGCGCCGGCUGGGCAAGAUUCCGAGGGGACCGUCCCCUCGGUAAUGGCGAAGGGGACCCA [C44G U79G] as the variant, how does the self-cleavage read?
Answer: Its self-cleavage is 0.196.

Question: For GGCCGGCAUGGUCCCAGCCUCCUCGCUGGCGCCGGCUGGGCAAGAUUCCGAGGGGACCGUCCCCUCGGUAAUGGCGAAUGGUACCCA [C44G G82U], which self-cleavage is on record?
Answer: The self-cleavage was 0.232.

Question: With GGCCGGCAUGGUCCCAGCCUCCUCGCUGGCGCCGGCUGGGCAACCUUCCGAGGGGACCGUCCCCUCGGUAAUGGCGACUGGGACCCA [A45C A78C] as the variant, how does the self-cleavage read?
Answer: The self-cleavage was 0.135.

Question: With GGCCGGCAUGGUCCCAGCCUCCUCGCUGGCGCCGGCUGGGCAAGAUUCCGAGGGGACCGUCCCCUCGGAAAUGGCGAAUGGGACCCA [C44G U69A] as the variant, how does the self-cleavage read?
Answer: The self-cleavage was 0.657.

Question: For GGCCGGCAUGGUCCCAGCCUCCUCGCUGGCGCCGGCUGGGCAAGAUUCCGAGGGGACCGUCCCCUCGGCAAUGGCGAAUGGGACCCA [C44G U69C], which self-cleavage is on record?
Answer: Its self-cleavage is 0.776.

Question: Which self-cleavage does the source give for GGCCGGCAUGGUCCCAGCCUCCUCGCUGGCGCCGGCUGGGCAAUAUUCCGAGGGGACCGUCCCCUCGGUAAUGGAGAAUGGGACCCA [C44U C75A] here?
Answer: The self-cleavage was 0.108.

Question: With GGCCGGCAUGGUCCCAGCCUCCUCGCUGGCGCCGGCUGGGCAAGAUUCCGAGGGGACCGUCCCCUUGGUAAUGGCGAAUGGGACCCA [C44G C66U] as the variant, how does the self-cleavage read?
Answer: The self-cleavage was 0.694.

Question: For GGCCGGCAUGGUCCCAGCCUCCUCGCUGGCGCCGGCUGGGCAAGAUUCCGAGGGGACCGUUCCCUCGGUAAUGGCGAAUGGGACCCA [C44G C61U], which self-cleavage is on record?
Answer: The self-cleavage was 0.378.

Question: For GGCCGGCAUGGUCCCAGCCUCCUCGCUGGCGCCGGCUGGGCAAGAUUCCGAGGGGACCGUACCCUCGGUAAUGGCGAAUGGGACCCA [C44G C61A], which self-cleavage is on record?
Answer: The self-cleavage was 0.724.

Question: With GGCCGGCAUGGUCCCAGCCUCCUCGCUGGCGCCGGCUGGGCAAUAUUCCGAGGGUACCGUCCCCUCGGUAAUGGCGAAUGGGACCCA [C44U G55U] as the variant, how does the self-cleavage read?
Answer: Its self-cleavage is 0.831.

Question: Which self-cleavage does the source give for GGCCGGCAUGGUCCCAGCCUCCUCGCUGGCGCCGGCUGGGCAAGAUUGCGAGGGGACCGUCCCCUCGGUAAUGGCGAAUGGGACCCA [C44G C48G] here?
Answer: Its self-cleavage is 0.575.

Question: Which self-cleavage does the source give for GGCCGGCAUGGUCCCAGCCUCCUCGCUGGCGCCGGCUGGGCAAUAUUCCGAGGGGACCGACCCCUCGGUAAUGGCGAAUGGGACCCA [C44U U60A] here?
Answer: Its self-cleavage is 0.594.
